In IntAct's records for PubMed 17070805:

Biological target: T1, npl4_human NPLOC4 (UniProt Q8TAT6)
T1 sequence: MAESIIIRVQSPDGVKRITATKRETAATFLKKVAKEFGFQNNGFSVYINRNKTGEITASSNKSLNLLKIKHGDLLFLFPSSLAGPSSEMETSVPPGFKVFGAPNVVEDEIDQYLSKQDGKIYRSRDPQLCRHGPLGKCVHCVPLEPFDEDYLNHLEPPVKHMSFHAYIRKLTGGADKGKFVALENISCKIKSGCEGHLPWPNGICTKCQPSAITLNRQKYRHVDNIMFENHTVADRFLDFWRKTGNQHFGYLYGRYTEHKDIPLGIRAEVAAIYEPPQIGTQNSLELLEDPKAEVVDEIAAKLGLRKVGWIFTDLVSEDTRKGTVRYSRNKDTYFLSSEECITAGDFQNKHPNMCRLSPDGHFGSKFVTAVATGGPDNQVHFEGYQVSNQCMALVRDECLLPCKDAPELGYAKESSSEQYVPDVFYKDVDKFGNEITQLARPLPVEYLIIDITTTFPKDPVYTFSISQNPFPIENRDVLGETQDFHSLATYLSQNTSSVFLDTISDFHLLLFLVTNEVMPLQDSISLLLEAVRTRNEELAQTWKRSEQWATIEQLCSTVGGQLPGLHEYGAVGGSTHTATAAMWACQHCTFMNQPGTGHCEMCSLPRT

Question: For “Polyubiquitin-C (Homo sapiens) (from UniProt P0CG48) I44A”, which “effect of a mutation on the interaction” value is on record?
Answer: decreasing interaction
